Source: US20170189508A1

Molecular target: HLA-A*02 (human)
Test: UV peptide exchange + b2m ELISA, exchange yield grade

Binder SLTEVSLPL [… (SEQ ID NO: 45)] has a peptide exchange yield of 50 to 75%.
